Measurements taken from patent publication US20240059757A1 (VIR BIOTECHNOLOGY, published 2024).
Read-outs that look alike come from different tables or passages of the source.

Legend:
[1] = target: T1, SARS-CoV RBD (Sino Biological) (SARS-CoV, UniProt P59594 306-527); assay: BLI
[2] = target: T2, SARS-CoV Spike protein (SARS-CoV, UniProt P59594 14-1255); assay: cell-based or functional assay
[3] = target: WIV-1 spike protein (on VSV pseudovirus) (WIV-1); assay: cell-based or functional assay
[4] = target: T2, SARS-CoV Spike protein; assay: cell-based or functional assay; remark: listed apart in the source
[5] = target: PANG/GD spike protein (PANG/GD); assay: cell-based or functional assay
[6] = target: PANG/GX spike protein (PANG/GX); assay: cell-based or functional assay
[7] = target: T1, SARS-CoV RBD (Sino Biological); assay: BLI; remark: listed apart in the source
[8] = target: T1, SARS-CoV RBD (Sino Biological)

B1: S2X259 variant antibody, VH SEQ ID NO 408 / VL SEQ ID NO 442 (antibody, V domains shown)
VH: QVQLVQSGAEVKKPGSSVKVSCKASGGIFNTYTISWVRQAPGQGLEWMGRIILMSGMANYAQKIQGRVTITADKSTSTAYMELTSLRSDDTAVYYCARGFNGNYYGWGDDDAFDISGQGTLVTVYS
VL: QTVLTQPPSVSGAPGQRVTISCTGSNSNIGAGYDVHWYQQLPGTAPKLLISGNSNRPSGVPDRFSGSKSGTSASLAITGLQAEDEADYYCQSYDSSLSGPNWVFGGGTKLTVL
Q: For B1, which Kd [1] is on record?
A: 0.397 nM

Q: And the “neutralization IC50” value [2]?
A: 0.0531 µg/mL

B2: S2X259 variant antibody, VH SEQ ID NO 408 / VL SEQ ID NO 443 (antibody, V domains shown)
VH: QVQLVQSGAEVKKPGSSVKVSCKASGGIFNTYTISWVRQAPGQGLEWMGRIILMSGMANYAQKIQGRVTITADKSTSTAYMELTSLRSDDTAVYYCARGFNGNYYGWGDDDAFDISGQGTLVTVYS
VL: QTVLTQPPSVSGAPGQRVTISCTGSNSNIGAGYDVHWYQQLPGTAPKLLIAGNSNRPSGVPDRFSGSKSGTSASLAITGLQAEDEADYYCQSYDSSLSGPNWVFGGGTKLTVL
Q: With B2 as the binder, how does the Kd [1] read?
A: 0.521 nM

Q: What about the “neutralization IC50” value [3] of the same binder?
A: < 0.1 µg/mL

Q: What about the “neutralization IC50” value [4] of the same binder?
A: < 0.1 µg/mL

Q: And the “neutralization IC50” value [5]?
A: < 0.1 µg/mL

Q: And the “neutralization IC50” value [6]?
A: < 0.1 µg/mL

Q: What about the “neutralization IC50” value [2] of the same binder?
A: 0.0353 µg/mL

B3: S2X259 variant antibody, VH SEQ ID NO 408 / VL SEQ ID NO 444 (antibody, V domains shown)
VH: QVQLVQSGAEVKKPGSSVKVSCKASGGIFNTYTISWVRQAPGQGLEWMGRIILMSGMANYAQKIQGRVTITADKSTSTAYMELTSLRSDDTAVYYCARGFNGNYYGWGDDDAFDISGQGTLVTVYS
VL: QTVLTQPPSVSGAPGQRVTISCTGSNSNIGAGYDVHWYQQLPGTAPKLLIYGNSNRPSGVPDRFSGSKSGTSASLAITGLQAEDEADYYCQSYDSSLSGPNWVFGGGTKLTVL
Q: With B3 as the binder, how does the Kd [1] read?
A: 1.34 nM

Q: And the “neutralization IC50” value [2]?
A: 0.0811 µg/mL

B4: S2X259 variant antibody, VH SEQ ID NO 408 / VL SEQ ID NO 445 (antibody, V domains shown)
VH: QVQLVQSGAEVKKPGSSVKVSCKASGGIFNTYTISWVRQAPGQGLEWMGRIILMSGMANYAQKIQGRVTITADKSTSTAYMELTSLRSDDTAVYYCARGFNGNYYGWGDDDAFDISGQGTLVTVYS
VL: QTVLTQPPSVSGAPGQRVTISCTGSNSNIGAGYDVHWYQQLPGTAPKLLIVGNSNRPSGVPDRFSGSKSGTSASLAITGLQAEDEADYYCQSYDSSLSGPNWVFGGGTKLTVL
Q: What does the source list for B4?
A: Kd [1]: 0.53 nM; Kd [7]: 0.176 nM; koff [7]: ~7.24e-05 s⁻¹; kon [7]: 411000 M⁻¹ s⁻¹; neutralization IC50 [3]: < 0.1 µg/mL; neutralization IC50 [4]: < 0.1 µg/mL; neutralization IC50 [5]: < 0.1 µg/mL; neutralization IC50 [6]: < 0.1 µg/mL; neutralization IC50 [2]: 0.036 µg/mL

B5: S2X259 variant antibody, VH SEQ ID NO 446 / VL SEQ ID NO 412 (antibody, V domains shown)
VH: QVQLVQSGAEVKKPGSSVKVSCKASGGIFNTYTISWVRQAPGQGLEWMGRIILISGIANYAQKIQGRVTITADKSTSTAYMELTSLRSDDTAVYYCARGFNGNYYGWGDDDAFDISGQGTLVTVYS
VL: QTVLTQPPSVSGAPGQRVTISCTGSNSNIGAGYDVHWYQQLPGTAPKLLICGNSNRPSGVPDRFSGSKSGTSASLAITGLQAEDEADYYCQSYDSSLSGPNWVFGGGTKLTVL
Q: With B5 as the binder, how does the Kd [1] read?
A: 5.58 nM

B6: S2X259 variant antibody, VH SEQ ID NO 448 / VL SEQ ID NO 412 (antibody, V domains shown)
VH: QVQLVQSGAEVKKPGSSVKVSCKASGGIFSTYTISWVRQAPGQGLEWMGRIILMSGMANYAQKIQGRVTITADKSTSTAYMELTSLRSDDTAVYYCARGFNGNYYGWGDDDAFDISGQGTLVTVYS
VL: QTVLTQPPSVSGAPGQRVTISCTGSNSNIGAGYDVHWYQQLPGTAPKLLICGNSNRPSGVPDRFSGSKSGTSASLAITGLQAEDEADYYCQSYDSSLSGPNWVFGGGTKLTVL
Q: Does B6 bind [1]?
A: no binding

B7: S2X259 variant antibody, VH SEQ ID NO 458 / VL SEQ ID NO 445 (antibody, V domains shown)
VH: QVQLVQSGAEVKKPGSSVKVSCKASGGIFNTYTISWVRQAPGQGLEWMGRIILMSGMANYAQKIQGRVTITADKSTSTAYMELTSLRSDDTAVYYCARGFNGNYYGWGDDDAFDIWGQGTLVTVSS
VL: QTVLTQPPSVSGAPGQRVTISCTGSNSNIGAGYDVHWYQQLPGTAPKLLIVGNSNRPSGVPDRFSGSKSGTSASLAITGLQAEDEADYYCQSYDSSLSGPNWVFGGGTKLTVL
Q: For B7, which Kd [7] is on record?
A: 0.455 nM

Q: What about the koff [7] of the same binder?
A: 0.000173 s⁻¹

Q: And the kon [7]?
A: 380000 M⁻¹ s⁻¹

B8: S2X259 variant antibody, VH SEQ ID NO 459 / VL SEQ ID NO 445 (antibody, V domains shown)
VH: QVQLVQSGAEVKKPGSSVKVSCKASGGIFNTYTISWVRQAPGQGLEWMGRIILMSGKANYAQKIQGRVTITADKSTSTAYMELTSLRSDDTAVYYCARGFNGNYYGWGDDDAFDIWGQGTLVTVSS
VL: QTVLTQPPSVSGAPGQRVTISCTGSNSNIGAGYDVHWYQQLPGTAPKLLIVGNSNRPSGVPDRFSGSKSGTSASLAITGLQAEDEADYYCQSYDSSLSGPNWVFGGGTKLTVL
Q: What does the source list for B8?
A: Kd [8]: 0.792 nM; koff [8]: 0.000273 s⁻¹; kon [8]: 345000 M⁻¹ s⁻¹

B9: S2X259 variant antibody, VH SEQ ID NO 460 / VL SEQ ID NO 445 (antibody, V domains shown)
VH: QVQLVQSGAEVKKPGSSVKVSCKASGGIFNTYTISWVRQAPGQGLEWMGRIILISGIANYAQKIQGRVTITADKSTSTAYMELTSLRSDDTAVYYCARGFNGNYYGWGDDDAFDIWGQGTLVTVSS
VL: QTVLTQPPSVSGAPGQRVTISCTGSNSNIGAGYDVHWYQQLPGTAPKLLIVGNSNRPSGVPDRFSGSKSGTSASLAITGLQAEDEADYYCQSYDSSLSGPNWVFGGGTKLTVL
Q: For B9, which Kd [8] is on record?
A: 1.59 nM

Q: And the koff [8]?
A: 0.000621 s⁻¹

Q: And the kon [8]?
A: 391000 M⁻¹ s⁻¹
